Assays:
[1] = target: T1, recombinant murine OX40-His (murine, UniProt P47741 20-211, limits assumed); assay: biolayer interferometry, 'Octet Binding Affinities, Ligand: mouse OX40-His'; penta-His biosensors; Example 11 calls it SPR
T1 construct: Coated on penta-his biosensors; also called mOX40
T1 sequence (looked up): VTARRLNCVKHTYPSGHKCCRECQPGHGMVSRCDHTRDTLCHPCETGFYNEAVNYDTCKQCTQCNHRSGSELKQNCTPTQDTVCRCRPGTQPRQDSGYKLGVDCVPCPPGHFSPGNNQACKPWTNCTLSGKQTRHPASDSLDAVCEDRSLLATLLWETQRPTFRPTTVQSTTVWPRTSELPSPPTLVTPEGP

[2] = target: T2, human OX40 expressed on cells (Jurkat/hOX40) (human, UniProt P43489 29-277); assay: flow cytometry on Jurkat/hOX40 cells
T2 construct: whole, on cells; also called Jurkat cells engineered to overexpress human OX40; OX40 present on the cell surface
T2 sequence (looked up): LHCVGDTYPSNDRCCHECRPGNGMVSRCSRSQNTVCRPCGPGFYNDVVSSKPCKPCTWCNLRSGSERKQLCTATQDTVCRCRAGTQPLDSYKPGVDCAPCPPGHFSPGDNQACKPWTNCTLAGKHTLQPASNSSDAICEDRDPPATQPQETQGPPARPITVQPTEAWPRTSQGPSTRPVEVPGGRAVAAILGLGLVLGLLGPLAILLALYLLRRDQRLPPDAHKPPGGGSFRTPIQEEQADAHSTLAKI
Description: For cell binding assays, immortalized cell lines were engineered to stably express human OX40 (Jurkat/hOX40). Increasing concentrations of the VSIG8-Fc-OX40L chimeric protein were incubated with the over-expressing (Jurkat/hOX40) cell line for two hours. Cells were collected, washed, and stained with antibodies for the detection of chimeric protein binding by flow cytometry.

hOX40-His [3] = target: T3, hOX40-His (human, UniProt P43489 29-216, limits assumed); assay: SPR/Octet kinetics on hOX40-His, against the control Fc-OX40L
T3 construct: also called human OX40
T3 sequence (looked up): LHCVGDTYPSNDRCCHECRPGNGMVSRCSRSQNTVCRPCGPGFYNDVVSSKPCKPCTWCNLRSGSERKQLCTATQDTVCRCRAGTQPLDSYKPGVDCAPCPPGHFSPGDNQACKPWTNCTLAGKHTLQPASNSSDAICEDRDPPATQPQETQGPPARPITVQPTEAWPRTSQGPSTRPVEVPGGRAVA

hOX40-His [4] = target: T3, hOX40-His; assay: SPR (BioRad ProteOn XPR 360) per Example 5; FIG. 5 legend says biolayer interferometry (Octet); hOX40-His as ligand, analyte at 117.6 nM
human IgG (plate-bound) = target: T4, human IgG (plate-bound); assay: ELISA, left panel; sheet header 'IgG ELISA, H&L Capture, Fc-HRP Detect'; paragraph 219: capture on plate-bound human IgG, detection with HRP-conjugated anti-human IgG antibody
T4 construct: Capture reagent as printed; It may in fact be an anti-human IgG antibody; also called hIgG
From the text: Specifically, the Fc portion of the chimeric protein was detected by capturing to a plate-bound human IgG and detecting via an HRP-conjugated anti-human IgG antibody (left panel of FIG. 3). The OX40 domain of the chimeric protein was detected by capturing to a plate-bound recombinant human OX40 protein and detecting via an anti-OX40-specific antibody (right panel of FIG. 3). It was observed that in ELISA assays, using the central Fc region to detect chimeric proteins tended to underestimate the actual protein content in a sample. Therefore, low level of the hVSIG8-Fc-OX40L chimeric protein was detected compared to standard in this assay.

hOX40-His [5] = target: T3, hOX40-His; assay: SPR (BioRad ProteOn XPR 360) per Example 5; FIG. 5 legend says biolayer interferometry (Octet); hOX40-His as ligand, analyte at 222.2 nM

B1: commercially-available mFc-OX40L (Fc fusion, murine, UniProt P43488 51-198, looked up)
chain: SSSPAKDPPIQRLRGAVTRCEDGQLFISSYKNEYQTMEVQNNSVVIKCDGLYIIYLKGSFFQEVKIDLHFREDHNPISIPMLNDGRRIVFTVVASLAFKDKVYLTVNAPDTLCEHLQINDGELIVVQLTPGYCAPEGSYHSTVNQVPL
notes: Bought control; Construct is not described; also called commercially-available recombinant control protein; not shown: Fc part of a bought control protein, not described
Does B1 bind [1]?
Result: binds

B2: human VSIG8-Fc-OX40L chimeric protein (Fc fusion)
chain: VRINGDGQEVLYLAEGDNVRLGCPYVLDPEDYGPNGLDIEWMQVNSDPAHHRENVFLSYQDKRINHGSLPHLQQRVRFAASDPSQYDASINLMNLQVSDTATYECRVKKTTMATRKVIVTVQARPAVPMCWTEGHMTYGNDVVLKCYASGGSQPLSYKWAKISGHHYPYRAGSYTSQHSYHSELSYQESFHSSINQGLNNGDLVLKDISRADDGLYQCTVANNVGYSVCVVEVKVSDSRRIGCPPCPAPEFLGGPSVFLFPPKPKDQLMISRTPEVTCVVVDVSQEDPEVQFNWYVDGVEVHNAKTKPREEQFNSTYRVVSVLTVLHQDWLSGKEYKCKVSSKGLPSSIEKTISNATGQPREPQVYTLPPSQEEMTKNQVSLTCLVKGFYPSDIAVEWESNGQPENNYKTTPPVLDSDGSFFLYSRLTVDKSRWQEGNVFSCSVLHEALHNHYTQKSLSLSLGKIEGRMDQVSHRYPRIQSIKVQFTEYKKEKGFILTSQKEDEIMKVQNNSVIINCDGFYLISLKGYFSQEVNISLHYQKDEEPLFQLKKVRSVNSLMVASLTYKDKVYLNVTTDNTSLDDFHVNGGELILIHQNPGEFCVL
notes: also called hVSIG8-Fc-OX40L
B2 was tested. Which EC50 [2] did it give?
Its EC50 is roughly 30 nM.

And the “fold slower off-rate than the Fc-OX40L protein” value (hOX40-His [3])?
Its value is 10 fold.

And the Kd (hOX40-His [4])?
Its Kd is 0.767 nM.

What about the koff (hOX40-His [4]) of the same binder?
Its koff is 0.000254 s⁻¹.

What about the kon (hOX40-His [4]) of the same binder?
Its kon is 331000 M⁻¹ s⁻¹.

And the “EC50 (read off the curve)” value (human IgG (plate-bound))?
Its value is roughly 6 nM.

B3: commercially-available single-sided human Fc-OX40L (Fc fusion, UniProt P23510 51-183, looked up)
chain: QVSHRYPRIQSIKVQFTEYKKEKGFILTSQKEDEIMKVQNNSVIINCDGFYLISLKGYFSQEVNISLHYQKDEEPLFQLKKVRSVNSLMVASLTYKDKVYLNVTTDNTSLDDFHVNGGELILIHQNPGEFCVL
notes: Bought control; also called hFc-OX40L; recombinant control protein; not shown: Fc part of a bought control protein, not described
How did the Kd (hOX40-His [5]) turn out when B3 was run?
Its Kd is 61 nM.

What about the koff (hOX40-His [5]) of the same binder?
The koff was 0.00254 s⁻¹.

What about the kon (hOX40-His [5]) of the same binder?
The kon was 41700 M⁻¹ s⁻¹.

Source: patent publication US20200071378A1 (SHATTUCK LABS, published 2020)
